Legend:
[1] = molecular target: T1, baculovirus-produced soluble human ICAM-R (Homo sapiens, UniProt P32942); test: ELISA binding of recombinant ICR-8.1 antibodies; settings: humanized/chimeric ICR-8.1 chain combinations, human IgG4/kappa
T1 sequence (P32942 30-485 limits assumed): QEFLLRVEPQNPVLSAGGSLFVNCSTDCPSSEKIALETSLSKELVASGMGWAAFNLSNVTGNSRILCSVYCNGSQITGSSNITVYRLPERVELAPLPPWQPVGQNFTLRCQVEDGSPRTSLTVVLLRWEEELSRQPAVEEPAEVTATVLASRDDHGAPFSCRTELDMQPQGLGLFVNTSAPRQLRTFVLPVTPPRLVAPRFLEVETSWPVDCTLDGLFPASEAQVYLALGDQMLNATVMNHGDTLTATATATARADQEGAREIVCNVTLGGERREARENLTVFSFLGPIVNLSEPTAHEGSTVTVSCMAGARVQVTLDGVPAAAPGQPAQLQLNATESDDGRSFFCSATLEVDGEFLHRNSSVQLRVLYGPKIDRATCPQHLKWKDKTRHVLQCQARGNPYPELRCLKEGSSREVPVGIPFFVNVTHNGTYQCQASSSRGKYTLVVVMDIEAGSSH

[2] = molecular target: T2, soluble baculovirus produced human ICAM-R (Homo sapiens, UniProt P32942); test: ELISA binding of recombinant ICR-1.1 antibodies
T2 sequence (P32942 30-485 limits assumed): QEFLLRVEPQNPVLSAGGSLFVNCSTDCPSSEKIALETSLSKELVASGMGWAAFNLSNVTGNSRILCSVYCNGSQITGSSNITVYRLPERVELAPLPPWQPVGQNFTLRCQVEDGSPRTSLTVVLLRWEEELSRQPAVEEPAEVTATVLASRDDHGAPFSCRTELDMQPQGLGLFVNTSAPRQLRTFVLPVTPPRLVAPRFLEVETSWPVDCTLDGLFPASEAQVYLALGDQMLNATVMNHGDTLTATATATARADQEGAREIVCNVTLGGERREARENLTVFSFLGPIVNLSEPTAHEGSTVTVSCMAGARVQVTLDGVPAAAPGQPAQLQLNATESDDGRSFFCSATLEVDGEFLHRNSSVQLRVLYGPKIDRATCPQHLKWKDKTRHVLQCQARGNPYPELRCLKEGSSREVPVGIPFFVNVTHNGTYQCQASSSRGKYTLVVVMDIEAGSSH

[3] = test system: JY cells (LFA-1) binding to ICAM-R/IgG; test: JY cell binding to plate-bound ICAM-R/IgG chimeras; type: cell-based, human
Method: The binding of the lymphoblastoid cell line JY, which expresses LFA-1, to wild type ICAM-R/IgG chimera was examined in the presence and absence of LFA-1 specific antibodies or antibodies specific for either domain 1 or 2 of ICAM-R. ICAM-R chimeras were diluted to 10 μg/ml in 0.1M Na-carbonate/bicarbonate buffer pH 9.6 and used to coat triplicate wells (50 μl/well) of an Immulon 4 96-well plate (Dynatech) overnight at 4° C. Wells were washed three times in PBS and blocked with 1% BSA (in PBS) for 1 hour at 37° C. JY cells were labeled with the fluorescent dye Calcein (Moleculat Probes, Eugene, Oreg.) at 8 μg/ml at 37° C. in serum free RPMI for 20 minutes. Cells were washed with RPMI and resuspended in binding buffer (0.2% HSA in RPMI. Approximately 1×10^5 cells were added to each well containing the binding buffer with or without antibody (20 μg/ml of ICR-2.1, ICR-1.1, ICR-3.1, ICR-5.1, ICR-7.1, ICR-8.1, ICR-4.2, ICR-6.2, ICR-9.2, TS1/22 or 60.3) so that the final volume was 0.35 ml. Plates were incubated at 37° C. in the dark for 45 minutes and input fluorescence was quantitated with a fluorescence reader (Millipore) in a 96-well format. Unbound cells were removed by inverting the plate in 0.1% BSA in PBS for 20 minutes. Bound cells were quantitated by measuring the remaining fluorescence and presented as percent input minus background binding to wells coated with BSA alone.

[4] = test system: SKW3 cells; test: Adhesion of PMA-activated SKW3 cells to plate-bound protein; type: cell-based, human; settings: PMA-treated cells
Method: The partially purified shICAM-R protein was assayed for binding to SKW3 cells that were pretreated with phorbol ester as described in Example 7 to activate LFA-1-dependent adhesion. The ICAM-R protein was coated onto 96-well Immulon 4 (Dynatech) plates after adjusting the lectin eluate to 25 mM carbonate pH 9.6 and incubated overnight at 4° C. The plates were washed two times with PBS, blocked for 30 minutes at 37° C. with 200 ul/well PBS, 1% BSA, and washed again with PBS before adding cells. SKW3 cells were washed in serum-free RPMI (Gibco), labelled with Calcein-AM (Molecular Probes), and stimulated with PMA. Cells were then added to the plates and incubated for 1 hour at 37° C. The plates were inverted in prewarmed PBS, 1% BSA and were incubated for 30 minutes. The plates were then removed and half of the contents of each well was aspriated. The plates were then scanned with a fluorescence microscope and an automated fluorescence reader.
Peak fractions from wtHis6, E37His6 and mock transfectants were concentrated about 6.5 fold using Centricon 30 (Amicon) centrifugation units. The resultant concentrates were adjusted to equal vols. (0.34 ml) using PBS-D. Control soluble ICAM-R (15 ug/ml) (Example 9) in carbonate buffer pH 9.6 or in buffer D with 40 mM imidazole were made up. […]

B1: MuVHVST/MuVK: chimeric ICR-8.1, MuVHVS heavy chain with Thr28, murine VK (antibody, V domains shown)
VH: EVQLQQSGPELVKPGASVKISCKASGYTFTDCIILWVKQSHGKGLEWIGKINPYFGTTTYNLKFKGKATLTVDKSSSTAHMQLNSLTSEDSAVYYCARKEAYPDAMDYWGQGTSVTVSS
VL: DAVMTQTPLSLPVSLGDQASISCRSSQSLVHSNGDTYLHWYLQKPGQSPQLLIYKVSNRFSGVPDRFSGSGSGTDFTLKLSRVEAEDLGVYFCSQSTHVPYTFGGGTKLEIK
binding to ICAM-R (ELISA), recombinant ICR-8.1 antibodies [1]: equivalence in binding to ICAM-R

B2: HuVH/MuVK: ICR-8.1 humanized VH (Ala71) with murine VK (antibody, V domains shown)
VH: QVQLVQSGAEVKKPGASVKVSCKASGYTFTDCIILWVRQAPGQGLEWMGKINPYFGTTTYNLKFKGRVTITADTSTSTAYMELSSLRSEDTAVYYCARKEAYPDAMDYWGQGTLVTVSS
VL: DAVMTQTPLSLPVSLGDQASISCRSSQSLVHSNGDTYLHWYLQKPGQSPQLLIYKVSNRFSGVPDRFSGSGSGTDFTLKLSRVEAEDLGVYFCSQSTHVPYTFGGGTKLEIK
binding to ICAM-R (ELISA), recombinant ICR-8.1 antibodies [1]: equivalence in binding to ICAM-R

B3: HuVHV/MuVK: ICR-8.1 humanized VH with Thr28 and Val71, murine VK (antibody, V domains shown)
VH: QVQLVQSGAEVKKPGASVKVSCKASGYTFTDCIILWVRQAPGQGLEWMGKINPYFGTTTYNLKFKGRVTITVDTSTSTAYMELSSLRSEDTAVYYCARKEAYPDAMDYWGQGTLVTVSS
VL: DAVMTQTPLSLPVSLGDQASISCRSSQSLVHSNGDTYLHWYLQKPGQSPQLLIYKVSNRFSGVPDRFSGSGSGTDFTLKLSRVEAEDLGVYFCSQSTHVPYTFGGGTKLEIK
binding to ICAM-R (ELISA), recombinant ICR-8.1 antibodies [1]: equivalence in binding to ICAM-R

B4: miJuVH/MuVK: ICR-8.1 miHuVH (Ala60, Gln61, Gln64) heavy chain with murine VK (antibody, V domains shown)
VH: QVQLVQSGAEVKKPGASVKVSCKASGYTFTDCIILWVRQAPGQGLEWMGKINPYFGTTTYAQKFQGRVTITADTSTSTAYMELSSLRSEDTAVYYCARKEAYPDAMDYWGQGTLVTVSS
VL: DAVMTQTPLSLPVSLGDQASISCRSSQSLVHSNGDTYLHWYLQKPGQSPQLLIYKVSNRFSGVPDRFSGSGSGTDFTLKLSRVEAEDLGVYFCSQSTHVPYTFGGGTKLEIK
binding to ICAM-R (ELISA), recombinant ICR-8.1 antibodies [1]: equivalence in binding to ICAM-R

B5: HuVH: humanized ICR-1.1 heavy chain V region (Met48) (antibody, V domains shown)
VH: GVQSQVQLVQSGAEVKKPGASVKVSCKASGYTFTVYWMHWVRQAPGQGLEWMGYINPNTDYTEYNQRFQKRVTITADTSTSTAYMELSSLRSEDTAVYYCARWGGNSYGLDYWGQGTLVTVSS
deficit in binding compared with murine progenitor chain, ICR-1.1 versions [2]: 2-3 fold

B6: HuVK: humanized ICR-1.1 kappa chain V region (antibody, V domains shown)
VL: GARCDIQMTQSPSSLSASVGDRVTITCSASSSVSYIYWYQQKPGKAPKLLIYLTSNLASGVPSRFSGSGSGTDFTLTISSLQPEDFATYYCQQWKSIPLTFGQGTKLEIK
deficit in binding compared with murine progenitor chain, ICR-1.1 versions [2]: 2 fold

B7: T38/A: ICAM-R/IgG chimera, Thr38 changed to Ala (protein)
chain: QEFLLRVEPQNPVLSAGGSLFVNCSTDCPSSEKIALEASLSKELVASGMGWAAFNLSNVTGNSRILCSVYCNGSQITGSSNITVYGLPERVELAPLPPWQPVGQNFTLRCQVEGGSPRTSLTVVLLRWEEELSRQPAVEEPAEVTATVLASRDDHGAPFSCRTELDMQPQGLGLFVNTSAPRQLRTFVLPVTPPRLVAPRFLEVETSWPVDCTLDGLFPASEAQVYLALGDQMLNATVMNHGDTLTATATATARADQEGAREIVCNVTLGGERREARENLTVFSFLGPIVNLSEPTAHEGSTVTVSCMAGARVQVTLDGVPAAAPGQTAQLQLNATESDDGRSFFCSATLEVDGEFLHRNSSVQLRVLYGPKIDRATCPQHLKWKDKTRHVLQCQARGNPYPELRCLKEGSSREVPVGIPFFVNVTHNGTYQCQASSSRGKYTLVVVMDIEAFSSH
modifications: left off: a dimerising Fc or GST
notes: ICAM-R/IgG chimera, Thr38 changed to Ala
reduction in JY cell adhesion to variant ICAM-R/IgG chimera [3]: 70-80%

B8: L121/P: ICAM-R/IgG chimera with domain 2 mutation L121/P (protein, UniProt P32942 30-485, looked up, variant L121P)
extracellular domain: QEFLLRVEPQNPVLSAGGSLFVNCSTDCPSSEKIALETSLSKELVASGMGWAAFNLSNVTGNSRILCSVYCNGSQITGSSNITVYRLPERVELAPLPPWQPVGQNFTLRCQVEDGSPRTSPTVVLLRWEEELSRQPAVEEPAEVTATVLASRDDHGAPFSCRTELDMQPQGLGLFVNTSAPRQLRTFVLPVTPPRLVAPRFLEVETSWPVDCTLDGLFPASEAQVYLALGDQMLNATVMNHGDTLTATATATARADQEGAREIVCNVTLGGERREARENLTVFSFLGPIVNLSEPTAHEGSTVTVSCMAGARVQVTLDGVPAAAPGQPAQLQLNATESDDGRSFFCSATLEVDGEFLHRNSSVQLRVLYGPKIDRATCPQHLKWKDKTRHVLQCQARGNPYPELRCLKEGSSREVPVGIPFFVNVTHNGTYQCQASSSRGKYTLVVVMDIEAGSSH
modifications: extracellular domain fused to IgG Fc
notes: ICAM-R/IgG chimera with domain 2 mutation L121/P
LFA-1 mediated JY cell adhesion to variant ICAM-R/IgG chimera ([3]; chimera coated at 10 μg/ml): wild type levels of LFA-1 mediated binding

B9: wtHis6: wild type histidine tagged soluble ICAM-R extracellular domain (protein)
chain: QEFLLRVEPQNPVLSAGGSLFVNCSTDCPSSEKIALETSLSKELVASGMGWAAFNLSNVTGNSRILCSVYCNGSQITGSSNITVYGLPERVELAPLPPWQPVGQNFTLRCQVEGGSPRTSLTVVLLRWEEELSRQPAVEEPAEVTATVLASRDDHGAPFSCRTELDMQPQGLGLFVNTSAPRQLRTFVLPVTPPRLVAPRFLEVETSWPVDCTLDGLFPASEAQVYLALGDQMLNATVMNHGDTLTATATATARADQEGAREIVCNVTLGGERREARENLTVFSFLGPIVNLSEPTAHEGSTVTVSCMAGARVQVTLDGVPAAAPGQTAQLQLNATESDDGRSFFCSATLEVDGEFLHRNSSVQLRVLYGPKIDRATCPQHLKWKDKTRHVLQCQARGNPYPELRCLKEGSSREVPVGIPFFVNVTHNGTYQCQASSSRGKYTLVVVMDIEAFSSGPGHHHHHH
adhesion of SKW3 cells to plate bound protein [4]: functions as an adhesive ligand for SKW3 cells
